Measurements taken from patent US20040121362A1.

What was measured:
[1] = target: Flag-RAI-3 recombinant protein expressed in the stable Flag-RAI-3 CHO cell line (CHO/NFAT G alpha 15), clone B8 (human) (UniProt Q8NFJ5); assay: FACS, clone B8 against parental CHO
[2] = target: Flag-RAI-3 recombinant protein expressed in the stable Flag-RAI-3 CHO cell line (CHO/NFAT G alpha 15), clone B8 (human) (UniProt Q8NFJ5); assay: FACS, gating 100%; parental CHO mean signal 4.82

Sequence of UniProt Q8NFJ5 (Q8NFJ5 other isoform, or with tags, fused parts or gaps): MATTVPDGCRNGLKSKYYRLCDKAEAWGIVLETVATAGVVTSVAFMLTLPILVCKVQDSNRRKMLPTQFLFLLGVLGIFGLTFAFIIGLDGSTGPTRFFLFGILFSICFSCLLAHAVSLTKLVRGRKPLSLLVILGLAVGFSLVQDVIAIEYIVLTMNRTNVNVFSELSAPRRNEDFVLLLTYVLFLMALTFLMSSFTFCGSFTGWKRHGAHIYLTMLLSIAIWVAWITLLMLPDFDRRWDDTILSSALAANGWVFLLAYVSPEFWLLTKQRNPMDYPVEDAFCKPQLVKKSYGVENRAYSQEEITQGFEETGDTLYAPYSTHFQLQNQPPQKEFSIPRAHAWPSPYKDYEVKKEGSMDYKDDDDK

fold over background [1]: 7 fold
mean signal [2]: 35
Substance: Anti-FLAG FITC (Sigma, Catalog #F4049) (antibody)
